Experimental data reported in the DeepSol protein solubility set.

test: soluble on expression in E. coli; label from the status in PepcDB or PDB records

Sequence | soluble on expression in E. coli
MTVPDRSEIAGKWYVVALASNTEFFLREKDKMKMAMARISFLGEDELKVSYAVPKPNGCRKWETTFKKTSDDGEVYYSEEAKKKVEVLDTDYKSYAVIYATRVKDGRTLHMMRLYSRSPEVSPAATAIFRKLAGERNYTDEMVAMLPRQEECTVDEV | soluble
MTVPEEAQTLIGKHYRAPDHFLVGREKIREFAVAVKDDHPTHYSEPDAAAAGYPALVAPLTFLAIAGRRVQLEIFTKFNIPINIARVFHRDQKFRFHRPILANDKLYFDTYLDSVIESHGTVLAEIRSEVTDAEGKPVVTSVVTMLGLEHHHHHH | not soluble
MTVRDKREKMTATREEFADAQQEFAAYAADFAADIETKRDVSSLLDAIDALRAEIEETGDAFDAYNQEFAAEVSHLQTEIGEQREALREMRDIFDAYAETFESDVEAKQDVSDLLAAIEDLRAEMDTTHEAFDAYTNEFVTDVAALRDVSDLLAAIEELQLEFGAVQAEFDDYTDDFDADIERFRNAVAEQRDAVAEYREEFHGVEVQAMLNAIADFQQEIDDFRAEFETTEESFDAFARDFYGAEASDSGDALETEAEAPDAGVPEQPAEESVETENEEAELEVVETETDTEDTDTGSIKEVEEELIIEEEIDTEDTREAENAVEEDEETEADEDAPEGMIQCLVCGEYYQAITEPHLQTHDMTIQEYREEYGEDMPLRPDDKA | not soluble
MTVSRFLRNPEQVSVALRGKIAAALDELGYIPNRAPDILSNATSRAIGVLLPSLTNQVFAEVLRGIESVTDAHGYQTMLAHYGYKPEMEQERLESMLSWNIDGLILTERTHTPRTLKMIEVAGIPVVELMDSQSPCLDIAVGFDNFEAARQMTTAIIARGHRHIAYLGARLDERTIIKQKGYEQAMLDAGLVPYSVMVEQSSSYSSGIELIRQARREYPQLDGVFCTNDDLAVGAAFECQRLGLKVPDDMAIAGFHGHDIGQVMEPRLASVLTPRERMGSIGAERLLARIRGESVTPKMLDLGFTLSPGGSI | not soluble
MTVTTKLIDYSDEEGNNFEGVLYIPKNVKQSKVPAVLIFPAFRGITHFEKDKGQQIAELGFVAFVADVYGKGVRPTERADAFATMGPLVSNRVEKLKPRLFAAVNTLKTFSEVDTSKIAAIGYCFGGLCVLDLARYNAGLKGVVSYHGTLKPIPDIALDPIVGTTVYVHHGDADFHIAKDQVDGFHEEMRTRQADFVFVSHANAVHAFTEPEADSFNAPGIGYNEKAAKRSWNATLDLFKEIF | not soluble
MTWKPNVTVAAVIEQDDKYLLVEEIPRGTAIKLNQPAGHLEPGESIIQACSREVLEETGHSFLPEVLTGIYHWTCASNGTTYLRFTFSGQVVSFDPDRKLDTGIVRAAWFSIDEIRAKQAMHRTPLVMQCIEDYHAGKRYPLDILQYYD | soluble
MTYGPESLSNQELLAILLRTGTKKEHVLNLSIKILNGLDSLADFRSLSLEELQEIEGIGQVRSVEIKAMLELSKRINQAEYNFKERILSSERLAKIMMSELGDKRQEHLIAIYLDTQNRVIKKQVIFIGSVRRSVAEPREILHYACKSMATSLIIVHNHPSGSTYPSENDLRFTEKIKRSCDDLGIVFLDHIIVGKKEYYSFREETDLV | not soluble
MTYIALIGDIIQSKQLTDRSKVQKTLAAYLDDLNKTFAPYIISKLSLTLGDEFQGLFQVDTPIFHLIDLINHHMDIPIRFGVGVGSILTDINPDISIGADGPAYWHAREAIRYIHQKNDYGNTTLALRTGHHNQDDVLNSLLAAGDAIKANWRASQWEIFDTLLDLGIYEEYFDQQRLGKQLSLSSSALSKRLKSSHVKIYLRTRQSALNCLKQIKEETDD | not soluble
MTYPTFALDDITSLHESAQVEFKLARGRDGQGQLPEDIWATYSSFANTLGGEIILGVREDRGHFTIEGIPNPQPVLQEFWEIIDNPSRVSCNILAISDVQLIEIMNKKLIRIRVPLAPEHLKPVFIGTDVYTGSYFRVGDADMHASRKQVMQMLRRAHHCNKLFKARLEHHHHHH | not soluble
MTYRVKIHKQVVKALQSLPKAHYRRFLEFRDILEYEPVPREKFDVIKLEGTGDLDLYRARLGDYRVIYSVNWKDKVIKILKLKPRGRAYK | soluble
MTYTGSIRCEGDTWDLASSVGATATMVAAARAMATRAANPLINDQFAEPLVRAVGVDVLTRLASGELTASDIDDPERPNASMVRMAEHHAVRTKFFDEFFMDATRAGIRQVVILASGLDSRAYRLAWPAQTVVYEIDQPQVMEFKTRTLAELGATPTADRRVVTADLRADWPTALGAAGFDPTQPTAWSAEGLLRYLPPEAQDRLLDNVTALSVPDSRFATESIRNFKPHHEERMRERMTILANRWRAYGFDLDMNELVYFGDRNEPASYLSDNGWLLTEIKSQDLLTANGFQPFEDEEVPLPDFFYVSARLQRKHRQYPAHRKPAPSWRHTACPVNELSKSAAYTMTRSDAHQASTTAPPPPGLTG | soluble
MVAEITAPKSMGKVLGYNFSKVTAGNASVILTSSMSVDANGETNFERALTDMDMRIPSGIRTKKTVFHCSLNPHPDDRLTTEQLQDIAREYMEKMGYGKQPYIVFKHNDIAREHIHIVSLRVDSYGKKLPYKFEARRSKRITDELERKYGLIPSGNRRSRHETHAENVLKTADVKQGDVRRQIAAVVRAVLKRYAFRSLGEMNLLLARYHIVAEEVRKEYKGKRYDGLVYAITDDAGEKRMIPLHAGKIGRGTGYAAVVRHFEKSKALIKEKAPMLRNAIIEVMQSSPDKERFSEEMKKRGIDVHIRQNEQGRIYGITFISDEAGIAANGSRLGKGYSAHVFNDYFLGGENPFLDYRRQEIRELPTVRSAPEMLPEAETGDDCYDEPVRTDESGIVVHGIDYKELAFQRKLRNRRHKQDITGKRRT | not soluble
MVAGNSAHEMVSILNQNRTARKLGKLNESPGLGCMALQYVELCEGNCNVNNTLSCEHPEDDFTQVFAPNCGVELPTFGTITGHILGCSSKYAAPEVAFSDILFRDSSALSVLRNRSHTEVGVGMARLHKGTFFWCLLFSDGVKNSSFVLEDNGRGIKQRTGCYSGSAFPCSSNAHMICMRLLNSFLGLLFSSFCLFEKHLKF | soluble
MVCFGVGSGGTVTGVGRYLRAQKQNIGVYPVEPFESSVLSGFPRGPHKIHGIGAGLIPGNVDRSLFTEVLRVKSEDAMKMARRLADEEAILGEISSGANVVAAVELACRPENIGKLIVTTVNSFAERYFSTELYSTLLSEVSKLPISTDEQAVDIAKKYLGL | not soluble
MVDFKLSPSQLEARRHAQAFANTVLTKASAEYSTQKDQLSRFQATRPFYREAVRHGLIKAQVPIPLGGTMESLVHESIILEELFAVEPATSITIVATALGLMPVILCDSPSLQEKFLKPFISGEGEPLASLMHSEPNGTANWLQKGGPGLQTTARKVGNEWVISGEKLWPSNSGGWDYKGADLACVVCRVSDDPSKPQDPNVDPATQIAVLLVTRETIANNKKDAYQILGEPELAGHITTSGPHTRFTEFHVPHENLLCTPGLKAQGLVETAFAMSAALVGAMAIGTARAAFEEALVFAKSDTRGGSKHIIEHQSVADKLIDCKIRLETSRLLVWKAVTTLEDEALEWKVKLEMAMQTKIYTTDVAVECVIDAMKAVGMKSYAKDMSFPRLLNEVMCYPLFDGGNIGLKRRQMQRVMALEDYEPWAATYGSSKVDKSRL | soluble
MVDNLIKYIHKSDVAIVVLHEIYGINSFIEDVCQKYYKYGYDVFCPELLGEKRVFPYSKVQEAYDFFINNVGFDIYKKVEKLINDLKSEYKYVFVAGYSVGATIAWRCSEDSFCDGIICCYGSRIRDYMDVIPKCPTLLVFAKHDSFDVDSISCQLSRKQNIQIEILDANHGFIDRYSNNYSDIQTKVFTIKEKSFLSKCLA | not soluble
MVEAIIFDMDGVLFDTEKYYYDRRASFLGQKGISIDHLPPSFFIGGNTKQVWENILRDEYDKWDVSTLQEEYNTYKQNNPLPYKELIFPDVLKVLNEVKSQGLNIGLASSSVKADIFRALEENRLQAFFDIVLSGEEFKESKPNPEIYLTALKQLNVQASRALIIEDSEKGIAAGVAADVEVWAIRDNLFGMDQSAAKGLLDSLTDVLDLIK | not soluble
MVEKPDINYQNKNVLHEINICYLGIMNKSLIALGAQTARRFLSSSSKNTIGGGDANRADTGVLDGYHINPLEESDMTDRSRISMLSTEMLEAKQIGVRGLSCYGFRLLDGTFLYGPIALFPKTALSWRVPTPEDITPRSLALFAALEPKIDILVLGVGDKKNIDKVRASVAPFLREHKIGLEIMDTEDAIATFNFLNAEGRYVGAALYPPDDMVVTDKEYGRALALLKGWDTVEENPLLTGLSDTINGAEDLVKRLWSGDEKSWQSARQKVLESPSEREERMQQEMNDKEKKRIE | not soluble
MVEVVSVREHDRWRGVYVVELEDGSLRIATKNLVPGQRVYGERIFRYNGEEYREWNAYRSKLAAALLKGLIELPVKEGDRILYLGIASGTTASHMSDIIGPRGRIYGVEFAPRVMRDLLTVVRDRRNIFPILGDARFPEKYRHLVEGVDGLYADVAQPEQAAIVVRNARFFLRDGGYMLMAIKARSIDVTTEPSEVYKREIKTLMDGGLEIKDVVHLDPFDRDHAMIYAVMRR | soluble
MVFEEFISTELKKEKKAFTEEFKEEKEINDNSNLKNDLLKEELQEKARIAELESRILKLELEKKELERENLQLMKENEILRRELDRMRVPPLIVGTVVDKVGERKVVVKSSTGPSFLVNVSHFVNPDDLAPGKRVCLNQQTLTVVDVLPENKDYRAKAMEVDERPNVRYEDIGGLEKQMQEIREVVELPLKHPELFEKVGIEPPKGILLYGPPGTGKTLLAKAVATETNATFIRVVGSELVKKFIGEGASLVKDIFKLAKEKAPSIIFIDEIDAIAAKRTDALTGGDREVQRTLMQLLAEMDGFDARGDVKIIGATNRPDILDPAILRPGRFDRIIEVPAPDEKGRLEILKIHTRKMNLAEDVNLEEIAKMTEGCVGAELKAICTEAGMNAIRELRDYVTMDDFRKAVEKIMEKKKVKVKEPAHLDVLYR | soluble
MVFMEENKKYRILGTLLYYVLRIISSTLKIEIVNKYGIDMQRPHIYGFWHSKLFITPIFFRNVEKKLAMSSPTKDGELISVPLEKMGYILVRGSSDKNQISSTISLLKYLKKGYSIGTPLDGPKGPKEKPKKGLLYLSQKTSVPLVPVGISYSKKWILKKTWDQFEIPKPFSKVKIFLGEPILIDDDEDLDKYTEIVKNGINSLNNQIEFLEHHHHHH | not soluble
MVFRCHYILVLEGFITQKNRLEHGGKDAGVEPPPYSNAAHHLTPWNDKRAIEAQELLKEFGIHHDSAANGVFLPYKVNEYVTTEVLHIGNHCTDYMKEVTKVLKEVKEYGGTQADAVAALHDIRIRLLDGSLKLNSPK | not soluble
MVGLSTGSWVKVLTSMPNLESITVVELNPAYVQLASSYPAMADLLKDNRVNIITDDGRRWLNKNPDQKFDLILMNTTFHWRNYATNLLSQQFLTVTKQHLTDNGFIYFNTTDALDAYKTSQAVFPHVYAYENMSLASLKPIAVPTTPEVHRALANLKWHDGRHIFNSPAEIAEGTARIVNTPLIPYKDIDFSPLKRPAKIITDTNMITEYKYGRLNTVINK | not soluble
MVGYAEPVLIERQSVVAAPAEQVWQRVVTPEGINDELRPWMTMSVPRGAKGMTVDTVPIGAPIGRAWLRLFGVLPFDYDRLSIAELEPGRRFREDSTMLSMRQWQHERTVTPEGDTKTIVRDRITFQTRAGLRFAAPLIAAGLRALFGHRHRRLQRHFAQGLEHHHHHH | soluble
MVHGKLKEAAEVTGSVSLEALEEVQVGENIEVGVGIDELVNAEAFAYDFTLNYDENAFEYVEAISDDGVFVNAKKIEDGKVRVLVSSLTGEPLPAKEVLAKVVLRAEAKTEGSNLSVTNSSVGDGEGLVHEIAGTEKTVNIIEGTSPEIVVNPVRDFKASEINKKNVTVTWTEPETTEGLEGYILYKDGKKVAEIGKDETSYTFKKLNRHTIYNFKIAAKYSNGEVSSKESLTLRTAR | soluble
